Values of other authors, collected in paper PMC12730246.

Biological target: TKS4 peptide (Homo sapiens) (UniProt A1X283)

Kd: 12 µM
Substance: TKS4 tandem SH3 tandem SH3 (from UniProt A1X283)
